Test results reported in patent publication US20110294728.
Like-named read-outs stand apart in the source and are kept apart here.

Assays:
HIV-1 integrase (HIV-1) = test: FP
[1] = target: monomeric p51 subunit of HIV-1 RT (UniProt P03366); test: stopped-flow, FRET between Trp of RT and bis-ANS, without PAW
[2] = target: monomeric p51 subunit of HIV-1 RT (UniProt P03366); test: stopped-flow, FRET between Trp of RT and bis-ANS, RT incubated with PAW

| Substance | IC50 (HIV-1 integrase (HIV-1)) | IC50 (HIV-1 integrase (HIV-1); 3'-processing active, value is IC50 of PAW peptide, 10 mM MgCl2, 37 C) | kdis (dissociation rate constant of the RT heterodimer in 10% acetonitrile) [1] | kdis (dissociation rate constant of the RT heterodimer in 10% acetonitrile) [2] |
| --- | --- | --- | --- | --- |
| 21-mer U5 LTR end oligonucleotide | 15.2 µM | 12.7 µM |  |  |
| monomeric p66 subunit of HIV-1 RT |  |  | a dissociation rate constant kdis of 5.30±0.01 s^-1 | kdis=1.42±0.007 s^-1 |
